Source: patent publication US20200299370A1 (UNIVERSITY OF FLORIDA RESEARCH FOUNDATION, published 2020)

T1: phosphopeptide DRSGYSpSPGpSPGpTPGSRSR (p193-211) (human, phosphoserine at residues 7 and 10 and phosphothreonine at 13 (S199, S202, T205 of 2N/4R tau); C residue added at the carboxy-terminus)
T1 construct: Unconjugated synthetic peptide coated on ELISA plates; also called tau peptide p193-211
T1 peptide: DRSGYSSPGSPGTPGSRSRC

B1: 2D1 (antibody, V domains shown)
VH: EVKLVESGGGLVQPGGSLRLSCATSGFTFTDFSMNWVRQPPGKALEWLGCVRDRAEGYTTEYSASVQGRFTISRDNSQSILYLQMNTLRPEDSATYYCARERAFAYWGQGTLVTVSA
VL: DIVMSQSPSSLAVSAGEKVTMSCKSSQSLLYSRNQKNYLAWYQQRPGQSPKLLIYWASSRESGVSDRFTGSGSGTDFTLTISSVKADDLAVYYCQQYYKSPLTFGAGTKLELKR
notes: also called clone 2D1
B2: PHF15 (antibody, V domains shown)
VH: EVQLVESGGGSVKPGGSLKLSCAASGFTFSSYALSWVRQTPEKRLEWVASITSGGSYTYFPDSVKGRFTISRDNAKNTLYLQMSSLRSEDTAMYYCTRPGNYDGAWCAYWGQGTLVTVSS
VL: DILLTQSPAILSVSPGERDSFSCRASQNIGTSIHWYQQRTNGSPRLLIKYASESISGIPSRFSGSGSGTDFTLSVNSVESEDVADYYCQQTKTWPTTFGAGTKLDLK
B3: 6G12 (antibody, V domains shown)
VH: EVNLEESGGGLVQPGGSMKLSCVASGFTFSDYWMNWVRQSPEKGLEWVAEIRLKSDNFATHYAESVKGRFTISRDDSKSSVYLQTNNLRAEDTGIYYCTLMRGDYGAEFAYWGQGTLAIVSA
VL: DIVMSQSPSSLAVSVGEKVTLTCKSSRSLLYRGNQENFLAWYQQKPGQSPKLLIYWASTRESGVPDRFTGSGSGTDFTLTINSVKAEDLAVYYCQQYYTYPYTFGGGTKLEIKR
B4: 7F2 (antibody, V domains shown)
VH: QVQLQQSGAELVQPGGSMKLSCVASGFTFSNYWMNWVRQSPETGLEWVAEIRLKSYNYATHYAESVTGRFTISRDDSKNRVYLQMNNLGPDDTGIYYCTTGGAYHPFDYWGQGTTLTVSS
VL: EIVLTQSIPSLTVSAGERVTINCKSNQNLLWSGNQRYCLVWHQWKPGQTPTPLITWTSDRYSGVPDRFIGGGSVTDFTLTISSVQAEDVALYFCQHHLHIPPWTFGGGTKLEIKR
notes: also called clone 7F2
B5: 10G12 (antibody, V domains shown)
VH: EVKLEESGGGLVQPGGSMKLSCVASGFTFSNYWMNWVRQSPETGLEWVAEIRLKSYNYATHYAESVTGRFTISRDDSKNRVYLQMNNLGPDDTGIYYCTTGGAYHPFDYWGQGTTLTVSS
VL: DIVMSQSPSSLAVSVGEKVTMTCKSSQSLLYRNNQKNYLAWYQQKPGQSPKLLIYWASTRESGVPDRFTGSGSGTDFTLTISSVKAEDLAVYYCQQYYTYPYTFGGGTKLEIKR
notes: also called 10G2
B6: PHF2 (antibody, V domains shown)
VH: EVQLVESGGGSVKPGGSLKLSCAASGFTFSSYAMSWVRQTPEKRLEWVASITRGGSYTYFPDSVKGRFTISRDNTKDTLYLQMSSLRSEDTAMYYCTRQGNYDGAWCDYWGQGTLVTVSA
VL: DILLTQSPAILSVSPGERVSFSCRASQNIGTSIHWYQQRTNGSPRLLIKYTSESISGIPSRFGGSGSGTDFTLSVNGVESEDVADYYCQQTKTWPTTFGAGTKLELKR

Columns and labels:
[1] = molecular target: T2, WT 0N/3R human tau, non-phosphorylated (incubated without any kinase) (human, UniProt P10636 2-758); assay: immunoblot, recombinant 0N/3R tau
T2 construct: Recombinant, E. coli BL21; also called non-phosphorylated tau
T2 sequence (P10636 other isoform, or with tags, fused parts or gaps limits assumed): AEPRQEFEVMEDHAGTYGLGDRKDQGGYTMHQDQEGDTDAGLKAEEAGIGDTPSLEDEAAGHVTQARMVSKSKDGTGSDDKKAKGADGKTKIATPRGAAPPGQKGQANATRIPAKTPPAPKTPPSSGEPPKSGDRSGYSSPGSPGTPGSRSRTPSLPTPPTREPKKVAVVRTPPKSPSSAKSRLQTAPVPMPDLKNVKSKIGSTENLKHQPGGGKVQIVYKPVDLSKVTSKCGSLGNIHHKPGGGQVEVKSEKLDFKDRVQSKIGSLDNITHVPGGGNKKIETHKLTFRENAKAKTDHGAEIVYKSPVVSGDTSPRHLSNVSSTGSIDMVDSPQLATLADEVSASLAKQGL
Protocol: (§1) WT, S199A, 5202A and T205A 0N/3R tau (mutants numbered according to 2N/4R human tau) were incubated with p42 MAPK or GSK3β or without any kinase as described in “Material and Methods”. […] The mobilities of molecular mass markers are shown on the left.
(§2) Tau proteins (0.2 mg/ml) were phosphorylated with either glycogen synthase kinase 3β (GSK3β; 2.5 U/μl; New England Biolabs, Ipswich, Mass.) or p42 mitogen-activated protein kinase (MAPK; 0.5 U/μl; New England Biolabs, Ipswich, Mass.) in 50 mM Tris, pH 7.5, 10 mM MgCl₂, 0.1 mM EDTA, 2 mM DTT, 0.1% Brij 35, ATP 200 μM for 2 hours at 30° C. followed by heat inactivation at 95° C. for 5 minutes. Samples were diluted in SDS-sample buffer and 100 ng of each tau protein was loaded on a separate lane on SDS-polyacrylamide gels for immunoblot analysis.
(§3) To determine the specificity of these monoclonal antibodies, WT, S199A, 5202A and T205A 0N/3R human tau (mutations numbered according to the sequence of 2N/4R human tau) were phosphorylated with p42 MAPK or GSK3β and immunoblotting analysis was performed (FIG. 3).

[2] = molecular target: T3, WT 0N/3R human tau phosphorylated in vitro with p42 MAPK or GSK3β (human, UniProt P10636 2-758, phosphorylated in vitro with p42 MAPK or with GSK3β; T205 (2N/4R numbering) phosphorylated by both, other sites not stated); assay: immunoblot, recombinant 0N/3R tau
T3 construct: recombinant, E. coli BL21; also called phosphorylated tau
T3 sequence (P10636 other isoform, or with tags, fused parts or gaps limits assumed): as above
Protocol: as §1, §2, §3

[3] = molecular target: T1, phosphopeptide DRSGYSpSPGpSPGpTPGSRSR …; assay: ELISA, hybridoma medium on plates coated with the unconjugated immunising peptide
[4] = molecular target: T4, full-length S404A 2N/4R human tau phosphorylated in vitro with GSK3β (human, UniProt P10636 2-758, phosphorylated in vitro with GSK3β; sites not stated); assay: immunoblot, recombinant tau phosphorylated in vitro
T4 construct: Recombinant, E. coli BL21; also called S404A tau; 5404A
T4 sequence (P10636 other isoform, or with tags, fused parts or gaps S404A S404A limits assumed): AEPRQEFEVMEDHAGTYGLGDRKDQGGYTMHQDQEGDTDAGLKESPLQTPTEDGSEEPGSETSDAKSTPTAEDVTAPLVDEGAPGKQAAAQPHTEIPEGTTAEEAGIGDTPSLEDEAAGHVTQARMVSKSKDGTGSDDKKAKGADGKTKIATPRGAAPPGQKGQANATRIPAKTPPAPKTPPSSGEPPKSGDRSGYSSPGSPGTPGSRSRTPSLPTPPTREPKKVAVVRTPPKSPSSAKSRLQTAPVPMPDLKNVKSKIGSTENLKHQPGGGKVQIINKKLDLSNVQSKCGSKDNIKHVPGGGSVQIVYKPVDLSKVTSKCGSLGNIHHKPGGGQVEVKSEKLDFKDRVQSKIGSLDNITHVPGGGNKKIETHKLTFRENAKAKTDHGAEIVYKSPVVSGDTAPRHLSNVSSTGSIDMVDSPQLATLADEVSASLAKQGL
Protocol: as §2
(§4) To determine the specificity of these monoclonal antibodies, full-length WT, S396A and 5404A 2N/4R human tau were in vitro phosphorylated with known tau kinases (p42 MAPK or GSK3β) and used these tau proteins for immunoblotting analysis (FIG. 1).

[5] = molecular target: T5, full-length S396A 2N/4R human tau phosphorylated in vitro with GSK3β (human, UniProt P10636 2-758, phosphorylated in vitro with GSK3β; sites not stated); assay: as above
T5 construct: Recombinant, E. coli BL21; also called S396A tau
T5 sequence (P10636 other isoform, or with tags, fused parts or gaps S396A S396A limits assumed): as the sequence (P10636 other isoform, or with tags, fused parts or gaps S404A S404A limits assumed) above, with S395A, A403S counted along it
Protocol: as §2, §4

[6] = molecular target: T6, T205A 0N/3R human tau phosphorylated in vitro with p42 MAPK or GSK3β (human, UniProt P10636 2-758, phosphorylated in vitro with p42 MAPK or with GSK3β; sites not stated); assay: immunoblot, recombinant 0N/3R tau phosphorylated in vitro
T6 construct: Two preparations, one for each kinase; also called phosphorylated T205A tau
T6 sequence (P10636 other isoform, or with tags, fused parts or gaps T205A T205A limits assumed): as the sequence (P10636 other isoform, or with tags, fused parts or gaps limits assumed) above, with T146A counted along it
Protocol: as §1, §2, §3

Binder	binding result [4]	binding result [5]	binding result [6]	also measured
B1	–	–	–	binding result [1]: binds; binding result [2]: binds; binding result [3]: binds
B2	no binding	no binding	–	–
B3	–	–	no binding	–
B4	–	–	no binding	–
B5	–	–	no binding	–
B6	no binding	no binding	–	–
